B1: Nfasc 1198 to 1214 WT [not stated] / AnkG ANK repeats (residues 38-855, R1-24) [not stated] (parent)
chain 1: GEGQFNEDGSFIGQYTV
chain 2: KSDANASYLRAARAGHLEKALDYIKNGVDVNICNQNGLNALHLASKEGHVEVVSELLQREANVDAATKKGNTALHIASLAGQAEVVKVLVTNGANVNAQSQNGFTPLYMAAQENHLEVVRFLLDNGASQSLATEDGFTPLAVALQQGHDQVVSLLLENDTKGKVRLPALHIAARKDDTKAAALLLQNDTNADIESKMVVNRATESGFTPLHIAAHYGNINVATLLLNRAAAVDFTARNDITPLHVASKRGNANMVKLLLDRGAKIDAKTRDGLTPLHCGARSGHEQVVEMLLDRAAPILSKTKNGLSPLHMATQGDHLNCVQLLLQHNVPVDDVTNDYLTALHVAAHCGHYKVAKVLLDKKANPNAKALNGFTPLHIACKKNRIRVMELLLKHGASIQAVTESGLTPIHVAAFMGHVNIVSQLMHHGASPNTTNVRGETALHMAARSGQAEVVRYLVQDGAQVEAKAKDDQTPLHISARLGKADIVQQLLQQGASPNAATTSGYTPLHLSAREGHEDVAAFLLDHGASLSITTKKGFTPLHVAAKYGKLEVASLLLQKSASPDAAGKSGLTPLHVAAHYDNQKVALLLLDQGASPHAAAKNGYTPLHIAAKKNQMDIATSLLEYGADANAVTRQGIASVHLAAQEGHVDMVSLLLSRNANVNLSNKSGLTPLHLAAQEDRVNVAEVLVNQGAHVDAQTKMGYTPLHVGCHYGNIKIVNFLLQHSAKVNAKTKNGYTPLHQAAQQGHTHIINVLLQNNASPNELTVNGNTALAIARRLGYISVVDTLKVVTEEIMTTTTITEKHKMNVPETMNEVLDMS
B2: AnkG ANK repeats (residues 38-855, R1-24) [not stated] / Nfasc ankyrin-binding domain (ABD, residues 1187-1214) [not stated] (parent)
chain 1: SDDSLVDYGEGGEGQFNEDGSFIGQYTV
chain 2: B1 chain 2

Variants of: B1
Assay: ITC
Conditions: with AnkG ANK repeats (residues 38-855, R1-24); parent: 1
chain 1 GEGQFNEDGSFIGQYAV gave a ratio to parent of 1. With chain 1 GEGQFAEDGSFIGQYTV the ratio to parent was 1. chain 1 GEGQFNEKGSFIGQYTV gave a ratio to parent of 23. Work on chain 1 GEGQFNEAGSFIGQYTV yielded a ratio to parent of 4. For chain 1 GEGQFNEDGSQIGQYTV, the ratio to parent was 4. Variant chain 1 GEGQFNEDGSFQGQYTV has a ratio to parent of 3. Variant chain 1 GEGQFNEDGAFIGQYTV has a ratio to parent of 4.

Variants of: B2
Assay: ITC
Conditions: with Nfasc ankyrin-binding domain (ABD, residues 1187-1214); parent: 1
Work on chain 2 T302A N304A yielded a ratio to parent of 11. Variant chain 2 H347A has a ratio to parent of 8. chain 2 V245Q was tested, and the ratio to parent was 6. For chain 2 R281A Q314A, the ratio to parent was 3. Variant chain 2 I240Q L273Q has a ratio to parent of 14. With chain 2 M311Q the ratio to parent was 8.

Source: article PMC9396398, “Crystal structure of Ankyrin-G in complex with a fragment of Neurofascin reveals binding mechanisms required for integrity of the axon initial segment” (The Journal of Biological Chemistry, 2022)
